Data on 33 sequences can be found in paper PMC4434323.

Data set [1] concerns the target T1, odr-7 (T18D3.2) (Caenorhabditis elegans) (UniProt P41933).
T1 sequence: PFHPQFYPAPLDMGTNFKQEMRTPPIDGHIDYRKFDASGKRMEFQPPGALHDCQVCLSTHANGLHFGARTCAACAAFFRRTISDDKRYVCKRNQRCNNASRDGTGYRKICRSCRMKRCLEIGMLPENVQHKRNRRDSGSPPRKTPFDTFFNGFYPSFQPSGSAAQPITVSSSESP

Data set [2] concerns the target T2, nhr-142 (F44E7.8) (Caenorhabditis elegans) (UniProt J7SF93).
T2 sequence: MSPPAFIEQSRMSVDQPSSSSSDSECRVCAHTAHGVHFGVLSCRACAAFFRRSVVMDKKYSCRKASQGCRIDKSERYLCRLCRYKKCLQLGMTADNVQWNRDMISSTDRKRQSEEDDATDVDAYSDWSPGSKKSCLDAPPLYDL

In data set [3] the target is T3, nhr-232 (Y22F5A.1) (Caenorhabditis elegans) (UniProt A0A486WVR6).
T3 sequence: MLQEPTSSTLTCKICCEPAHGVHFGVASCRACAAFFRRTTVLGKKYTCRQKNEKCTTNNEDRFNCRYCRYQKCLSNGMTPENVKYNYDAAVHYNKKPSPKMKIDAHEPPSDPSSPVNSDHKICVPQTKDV

Data set [4] relates to T4, nhr-216 (T09D3.4) (Caenorhabditis elegans).
T4 sequence: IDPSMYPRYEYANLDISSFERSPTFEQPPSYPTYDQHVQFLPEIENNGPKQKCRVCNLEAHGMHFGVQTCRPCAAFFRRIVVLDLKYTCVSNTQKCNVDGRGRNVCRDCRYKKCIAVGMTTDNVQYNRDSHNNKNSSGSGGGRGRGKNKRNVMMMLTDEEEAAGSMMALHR

“TACAAATA (double strand) [8-mer TACAAATA]”: the binding signal (PBM E-score (-0.5 to 0.5)) in data set [1] worked out at 0.461. As to “AGTCACAG (double strand) [8-mer AGTCACAG]”, the figures for the binding signal (PBM E-score (-0.5 to 0.5)) in data set [2] and in data set [3] were 0.492 and 0.465, respectively. Sequence “TGTCAGAA (double strand) [8-mer TGTCAGAA]” had a binding signal (PBM E-score (-0.5 to 0.5)) in data set [4] of 0.496. The same measure, in the same setting: the same measure for “GGACAGAA (double strand) [8-mer GGACAGAA]”: 0.493.

In data set [4], “GTCAGAAC (double strand) [8-mer GTCAGAAC]” gave a binding signal (PBM E-score (-0.5 to 0.5)) of 0.498. As for “TACTACAA (double strand) [8-mer TACTACAA]”, in data set [1], the binding signal (PBM E-score (-0.5 to 0.5)) is 0.474.

Turning to “AAGTCAGA (double strand) [8-mer AAGTCAGA]”, the binding signal (PBM E-score (-0.5 to 0.5)) in data set [4] turned out to be 0.493.

As for “AATCAGAA (double strand) [8-mer AATCAGAA]”, in data set [4], the binding signal (PBM E-score (-0.5 to 0.5)) worked out at 0.497. With “AATTGTAC (double strand) [8-mer AATTGTAC]”, the binding signal (PBM E-score (-0.5 to 0.5)) in data set [1] turned out to be 0.46.

In data set [4], “ATCAGAAG (double strand) [8-mer ATCAGAAG]” gave a binding signal (PBM E-score (-0.5 to 0.5)) of 0.494. “ATTGTGAC (double strand) [8-mer ATTGTGAC]”: the binding signal (PBM E-score (-0.5 to 0.5)) amounted to 0.494 in data set [2] and 0.489 in data set [3]. In data set [4], “AGTCAGAA (double strand) [8-mer AGTCAGAA]” yielded a binding signal (PBM E-score (-0.5 to 0.5)) of 0.498. On the same count and under the same terms, the same measure for “ATCAGAAC (double strand) [8-mer ATCAGAAC]”: 0.494. In data set [1], “AAATTGTA (double strand) [8-mer AAATTGTA]” showed a binding signal (PBM E-score (-0.5 to 0.5)) of 0.456. In data set [4], “ATTCTGAC (double strand) [8-mer ATTCTGAC]” yielded a binding signal (PBM E-score (-0.5 to 0.5)) of 0.495. Regarding “GGTCAGAA (double strand) [8-mer GGTCAGAA]”, the binding signal (PBM E-score (-0.5 to 0.5)) in data set [4] is 0.498. For the sequence “GTCACACA (double strand) [8-mer GTCACACA]”, the binding signal (PBM E-score (-0.5 to 0.5)) in data set [3] came out at 0.46. Consider “GTCAGAAA (double strand) [8-mer GTCAGAAA]”, for which the binding signal (PBM E-score (-0.5 to 0.5)) in data set [4] amounted to 0.496. “CTACAATC (double strand) [8-mer CTACAATC]”: the binding signal (PBM E-score (-0.5 to 0.5)) in data set [1] was determined as 0.466. Sequence “GATCAGAA (double strand) [8-mer GATCAGAA]” yielded a binding signal (PBM E-score (-0.5 to 0.5)) in data set [4] of 0.497. In the case of “ATTTGTAG (double strand) [8-mer ATTTGTAG]”, in data set [1], the binding signal (PBM E-score (-0.5 to 0.5)) is 0.479.

“CGTCAGAA (double strand) [8-mer CGTCAGAA]” came in with a binding signal (PBM E-score (-0.5 to 0.5)) in data set [4] of 0.493. Turning to “TGTCACAA (double strand) [8-mer TGTCACAA]”, the results for the binding signal (PBM E-score (-0.5 to 0.5)) in data set [2] and in data set [3] were 0.49 and 0.474, respectively.

In turn, “CTTCTGAC (double strand) [8-mer CTTCTGAC]” gave a binding signal (PBM E-score (-0.5 to 0.5)) in data set [4] of 0.498. In data set [1], “ATACAATA (double strand) [8-mer ATACAATA]” yielded a binding signal (PBM E-score (-0.5 to 0.5)) of 0.461. On the same count and under the same terms, under “ATTGTAGC (double strand) [8-mer ATTGTAGC]” stands 0.487; under “AATTGTAG (double strand) [8-mer AATTGTAG]”, 0.489. Regarding “ACACAAAA (double strand) [8-mer ACACAAAA]”, the binding signal (PBM E-score (-0.5 to 0.5)) in data set [3] is 0.465.

On to “GGACACAA (double strand) [8-mer GGACACAA]”, for which the values for the binding signal (PBM E-score (-0.5 to 0.5)) in data set [2] and in data set [3] were 0.493 and 0.473, respectively. On the same counts, the results for “AGTCATAA (double strand) [8-mer AGTCATAA]” are 0.491 and 0.48. On the same counts, the results for “GGTCACAA (double strand) [8-mer GGTCACAA]” are 0.495 and 0.485. Consider “TCTGACCA (double strand) [8-mer TCTGACCA]”, for which the binding signal (PBM E-score (-0.5 to 0.5)) in data set [4] amounted to 0.491. On to “GACACAAA (double strand) [8-mer GACACAAA]”, for which, in data set [3], the binding signal (PBM E-score (-0.5 to 0.5)) is 0.475.
